From EP3970798A1 (NMI Naturwissenschaftliches und Medizinisches Institut an …, dated 2022)

B1: nanobody NM1230 (VHH)
VHH: QVQLVESGGGLVRPGGSLRLSCVGSGFTFSGYAMNWYRQAPGKALELVAGISNAGDLTHYEEPMKGRVAISRANDKNTVYLQMDDLKPEDTAVYRCHAPGVRVGTGERKDVWGQGAQVTVSS
B2: nanobody NM1229 (VHH)
VHH: EVQLQESGGGLVQPGESLRLSCAASGRTHDWYTMGWFRQAPGKEREFVARINWSSGMTYYADSVKGRFTISRDNPKNTVYLQMNSLTPDDTAVYYCNVHPFTSPDYWGQGTRVTVSS

Target: receptor binding domain (RBD) of the SARS-CoV-2 Spike protein (SARS-CoV-2, UniProt P0DTC2 319-541)

Binder	IC50	Kd
B1	2.12 nM	8.23 nM
B2	38 nM	
